Laboratory results taken from patent publication US11819542B2, “Immunotherapeutic method for treating lung cancer by administering a polypeptide comprising an epitope of hZP3” (Pantarhei Bioscience B.V., priority 2017, dated 2023).

Key:
[1] = test system: hZP3-positive B16-HLA-A2 melanoma tumor; assay: Therapeutic immunization of HLA-A2 transgenic mice with ZP3-expressing tumor: tumor size; format: in vivo; details: female HLA-A2 transgenic mice, ZP3 expressing tumors, 2 s.c. immunizations (prime D7-10, boost D14-17) plus GM-CSF/CpG, tumor size increased with PBS
Protocol: (§1) FIG. 5: Schedule for administration of hZP3-positive B16-HLA-A2 melanoma tumor cells and an hZP3 peptide-mixture (comprising peptides 4, 5, 6, 8 and 9 in Table 5), or rhZP3^1-383 protein to HLA-A2 transgenic mice. On Day 0 (D0), a tumor injection with 10^6 cells/mouse was given subcutaneously (s.c.). Thereafter, the prime injection was administered 7 to 10 days (D7-10) and a boost injection on Day 14 to Day 17 (D14-17). Tumor size was monitored after treatment. At Day 30 to 35, mice were sacrificed to determine hZP3 specific CD8^+ responses (ELISpot).
An in vivo pre-clinical efficacy study has been conducted to assess the immune response and the anti-tumor response after immunization with rhZP3 polypeptide (aa 1-383 with his-tag) and 5 different ZP3 epitopes. The hZP3 epitopes were selected based on CD8^+ T cell responses observed during previously performed immunogenicity experiments with rhZP3 polypeptide (aa 1-383) and with pools of peptides comprising hZP3 epitopes as indicated (see Table 5) combined with different adjuvants (data not shown). The peptides were synthesized by Pepscan (the Netherlands) at a purity >96%. […]
(§2) On Day 0 (DO), a tumor injection with 10^6 cells/mouse (s.c.) was given. […] Tumor size was monitored after treatment. […]

[2] = test system: hZP3 specific CD8^+ responses; assay: ZP3 specific CD8+ T cell response after immunization (interferon-γ ELISpot); format: in vivo; details: HLA-A2 transgenic mice with ZP3 expressing tumors, after prime and boost immunization plus GM-CSF/CpG, Day 30 to 35
Protocol: as §1
FIG. 7: CD8^+ T cell responses as determined by interferon-γ (IFNg) ELISpot as measured against the peptides (all 5 or peptides 4, 5, 6, 8 or 9 individually) after immunization with the mixture of the 5 hZP3 peptides (peptide), or after immunization with the rhZP3^1-383 protein ZP3 (prot).
An in vivo pre-clinical efficacy study has been conducted to assess the immune response and the anti-tumor response after immunization with rhZP3 polypeptide (aa 1-383 with his-tag) and 5 different ZP3 epitopes. […]
as §2

[3] = listed as hZP3 polypeptide (aa 1-383)

B1: rhZP3 protein: rhZP3 polypeptide (aa 1-383 with his-tag), 100 μg s.c. plus GM-CSF/CpG as adjuvant (protein)
chain: QPLWLLQGGASHPETSVQPVLVECQEATLMVMVSKDLFGTGKLIRAADLTLGPEACEPLVSMDTEDVVRFEVGLHECGNSMQVTDDALVYSTFLLHDPRPVGNLSIVRTNRAEIPIECRYPRQGNVSSQAILPTWLPFRTTVFSEEKLTFSLRLMEENWNAEKRSPTFHLGDAAHLQAEIHTGSHVPLRLFVDHCVATPTPDQNASPYHTIVDFHGCLVDGLTDASSAFKVPRPGPDTLQFTVDVFHFANDSRNMIYITCHLKVTLAEQDPDELNKACSFSKPSNSWFPVEGSADICQCCNKGDCGTPSHSRRQPHVMSQWSRSASRN
Tumor size after treatment [1]: no growth of the tumor was observed | Tumor size after treatment [1, 3]: no increase in tumor size was observed | CD8^+ T cell response (IFNg ELISpot) ([2]; listed as ZP3 protein): a TCD8 response was observed | CD8^+ T cell response (IFNg ELISpot) [2, 3]: induced CD8^+ T cells
